The star is where a group is joined. Succinyl(4-O-cholesteryl) = CC(C)CCC[C@@H](C)[C@H]1CC[C@H]2[C@@H]3CC=C4C[C@@H](OC(=O)CCC(=O)*)CC[C@]4(C)[C@H]3CC[C@]12C
What follows are binders tested against F protein of RSV A long virus strain (Respiratory Syncytial Virus (RSV) A …, UniProt P12568 26-574) (assay: cell-based or functional assay).
Sequence of F protein of RSV A long virus strain (P12568 26-574): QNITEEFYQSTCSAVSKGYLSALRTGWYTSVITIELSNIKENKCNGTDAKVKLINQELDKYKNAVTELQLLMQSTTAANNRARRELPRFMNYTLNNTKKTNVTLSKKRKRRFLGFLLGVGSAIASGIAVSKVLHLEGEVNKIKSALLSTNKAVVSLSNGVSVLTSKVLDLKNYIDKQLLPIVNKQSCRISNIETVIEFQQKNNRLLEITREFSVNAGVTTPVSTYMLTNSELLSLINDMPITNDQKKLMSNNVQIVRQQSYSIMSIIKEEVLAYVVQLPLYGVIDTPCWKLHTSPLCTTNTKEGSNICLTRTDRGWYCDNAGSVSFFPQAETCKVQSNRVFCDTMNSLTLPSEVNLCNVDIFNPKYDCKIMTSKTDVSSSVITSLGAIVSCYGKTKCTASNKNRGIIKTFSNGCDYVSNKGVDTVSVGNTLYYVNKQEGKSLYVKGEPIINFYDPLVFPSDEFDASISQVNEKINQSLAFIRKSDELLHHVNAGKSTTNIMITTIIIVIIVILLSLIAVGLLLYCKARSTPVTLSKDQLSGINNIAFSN

Binder	IC50/nM, plaque reduction, RSV A long on HEp-2 cells (Table 2, Cell fusion inhibition activity)
Ac-FDASLLKIEEEKKKIEELLKLHNESDKKLEEV-NH2 [Compound 4]	> 8000 nM
Ac-SISQVNEKINEIQSLEEKSDKLLKSEAAAKK(Succinyl(4-O-cholesteryl))-NH2 (SMILES CC[C@H](C)[C@H](NC(=O)[C@H](CO)NC(C)=O)C(=O)N[C@@H](CO)C(=O)N[C@@H](CCC(N)=O)C(=O)N[C@H](C(=O)N[C@@H](CC(N)=O)C(=O)N[C@@H](CCC(=O)O)C(=O)N[C@@H](CCCCN)C(=O)N[C@H](C(=O)N[C@@H](CC(N)=O)C(=O)N[C@@H](CCC(=O)O)C(=O)N[C@H](C(=O)N[C@@H](CCC(N)=O)C(=O)N[C@@H](CO)C(=O)N[C@@H](CC(C)C)C(=O)N[C@@H](CCC(=O)O)C(=O)N[C@@H](CCC(=O)O)C(=O)N[C@@H](CCCCN)C(=O)N[C@@H](CO)C(=O)N[C@@H](CC(=O)O)C(=O)N[C@@H](CCCCN)C(=O)N[C@@H](CC(C)C)C(=O)N[C@@H](CC(C)C)C(=O)N[C@@H](CCCCN)C(=O)N[C@@H](CO)C(=O)N[C@@H](CCC(=O)O)C(=O)N[C@@H](C)C(=O)N[C@@H](C)C(=O)N[C@@H](C)C(=O)N[C@@H](CCCCN)C(=O)N[C@@H](CCCCNC(=O)CCC(=O)O[C@H]1CC[C@@]2(C)C(=CC[C@H]3[C@@H]4CC[C@H]([C@H](C)CCCC(C)C)[C@@]4(C)CC[C@@H]32)C1)C(N)=O)[C@@H](C)CC)[C@@H](C)CC)C(C)C) [Compound 35]	5530 nM
Ac-FEVNRRRIEQSLEKSLESLEEEEHSDKKLHNELH-NH2 [Compound 46]	> 8000 nM
Ac-VNKKIEEEKQSLKKQSDKIEESDENEAAAKK(Succinyl(4-O-cholesteryl))-NH2 (SMILES CC[C@H](C)[C@H](NC(=O)[C@H](CCCCN)NC(=O)[C@H](CC(=O)O)NC(=O)[C@H](CO)NC(=O)[C@H](CCC(N)=O)NC(=O)[C@H](CCCCN)NC(=O)[C@H](CCCCN)NC(=O)[C@H](CC(C)C)NC(=O)[C@H](CO)NC(=O)[C@H](CCC(N)=O)NC(=O)[C@H](CCCCN)NC(=O)[C@H](CCC(=O)O)NC(=O)[C@H](CCC(=O)O)NC(=O)[C@H](CCC(=O)O)NC(=O)[C@@H](NC(=O)[C@H](CCCCN)NC(=O)[C@H](CCCCN)NC(=O)[C@H](CC(N)=O)NC(=O)[C@@H](NC(C)=O)C(C)C)[C@@H](C)CC)C(=O)N[C@@H](CCC(=O)O)C(=O)N[C@@H](CCC(=O)O)C(=O)N[C@@H](CO)C(=O)N[C@@H](CC(=O)O)C(=O)N[C@@H](CCC(=O)O)C(=O)N[C@@H](CC(N)=O)C(=O)N[C@@H](CCC(=O)O)C(=O)N[C@@H](C)C(=O)N[C@@H](C)C(=O)N[C@@H](C)C(=O)N[C@@H](CCCCN)C(=O)N[C@@H](CCCCNC(=O)CCC(=O)O[C@H]1CC[C@@]2(C)C(=CC[C@H]3[C@@H]4CC[C@H]([C@H](C)CCCC(C)C)[C@@]4(C)CC[C@@H]32)C1)C(N)=O) [Compound 36]	6820 nM
Ac-WDEFDASISQNEKINQSLEEIRKSDELLHNNALEAAAKK(Succinyl(4-O-cholesteryl))-NH2 (SMILES CC[C@H](C)[C@H](NC(=O)[C@H](CO)NC(=O)[C@H](C)NC(=O)[C@H](CC(=O)O)NC(=O)[C@H](Cc1ccccc1)NC(=O)[C@H](CCC(=O)O)NC(=O)[C@H](CC(=O)O)NC(=O)[C@H](Cc1c[nH]c2ccccc12)NC(C)=O)C(=O)N[C@@H](CO)C(=O)N[C@@H](CCC(N)=O)C(=O)N[C@@H](CC(N)=O)C(=O)N[C@@H](CCC(=O)O)C(=O)N[C@@H](CCCCN)C(=O)N[C@H](C(=O)N[C@@H](CC(N)=O)C(=O)N[C@@H](CCC(N)=O)C(=O)N[C@@H](CO)C(=O)N[C@@H](CC(C)C)C(=O)N[C@@H](CCC(=O)O)C(=O)N[C@@H](CCC(=O)O)C(=O)N[C@H](C(=O)N[C@@H](CCCNC(=N)N)C(=O)N[C@@H](CCCCN)C(=O)N[C@@H](CO)C(=O)N[C@@H](CC(=O)O)C(=O)N[C@@H](CCC(=O)O)C(=O)N[C@@H](CC(C)C)C(=O)N[C@@H](CC(C)C)C(=O)N[C@@H](Cc1c[nH]cn1)C(=O)N[C@@H](CC(N)=O)C(=O)N[C@@H](CC(N)=O)C(=O)N[C@@H](C)C(=O)N[C@@H](CC(C)C)C(=O)N[C@@H](CCC(=O)O)C(=O)N[C@@H](C)C(=O)N[C@@H](C)C(=O)N[C@@H](C)C(=O)N[C@@H](CCCCN)C(=O)N[C@@H](CCCCNC(=O)CCC(=O)O[C@H]1CC[C@@]2(C)C(=CC[C@H]3[C@@H]4CC[C@H]([C@H](C)CCCC(C)C)[C@@]4(C)CC[C@@H]32)C1)C(N)=O)[C@@H](C)CC)[C@@H](C)CC) [Compound 39]	113 nM
Ac-FDEEVNKKIEQSLKINQSLEEIRKSEAAAKK(Succinyl(4-O-cholesteryl))-NH2 (SMILES CC[C@H](C)[C@H](NC(=O)[C@H](CCC(=O)O)NC(=O)[C@H](CCC(=O)O)NC(=O)[C@H](CC(C)C)NC(=O)[C@H](CO)NC(=O)[C@H](CCC(N)=O)NC(=O)[C@H](CC(N)=O)NC(=O)[C@@H](NC(=O)[C@H](CCCCN)NC(=O)[C@H](CC(C)C)NC(=O)[C@H](CO)NC(=O)[C@H](CCC(N)=O)NC(=O)[C@H](CCC(=O)O)NC(=O)[C@@H](NC(=O)[C@H](CCCCN)NC(=O)[C@H](CCCCN)NC(=O)[C@H](CC(N)=O)NC(=O)[C@@H](NC(=O)[C@H](CCC(=O)O)NC(=O)[C@H](CCC(=O)O)NC(=O)[C@H](CC(=O)O)NC(=O)[C@H](Cc1ccccc1)NC(C)=O)C(C)C)[C@@H](C)CC)[C@@H](C)CC)C(=O)N[C@@H](CCCNC(=N)N)C(=O)N[C@@H](CCCCN)C(=O)N[C@@H](CO)C(=O)N[C@@H](CCC(=O)O)C(=O)N[C@@H](C)C(=O)N[C@@H](C)C(=O)N[C@@H](C)C(=O)N[C@@H](CCCCN)C(=O)N[C@@H](CCCCNC(=O)CCC(=O)O[C@H]1CC[C@@]2(C)C(=CC[C@H]3[C@@H]4CC[C@H]([C@H](C)CCCC(C)C)[C@@]4(C)CC[C@@H]32)C1)C(N)=O) [Compound 34]	> 2000 nM
Ac-FDELVNKKIEKIEEVNKKSLKLLESEAAAKK(Succinyl(4-O-cholesteryl))-NH2 (SMILES CC[C@H](C)[C@H](NC(=O)[C@H](CCCCN)NC(=O)[C@H](CCCCN)NC(=O)[C@H](CC(N)=O)NC(=O)[C@@H](NC(=O)[C@H](CC(C)C)NC(=O)[C@H](CCC(=O)O)NC(=O)[C@H](CC(=O)O)NC(=O)[C@H](Cc1ccccc1)NC(C)=O)C(C)C)C(=O)N[C@@H](CCC(=O)O)C(=O)N[C@@H](CCCCN)C(=O)N[C@H](C(=O)N[C@@H](CCC(=O)O)C(=O)N[C@@H](CCC(=O)O)C(=O)N[C@H](C(=O)N[C@@H](CC(N)=O)C(=O)N[C@@H](CCCCN)C(=O)N[C@@H](CCCCN)C(=O)N[C@@H](CO)C(=O)N[C@@H](CC(C)C)C(=O)N[C@@H](CCCCN)C(=O)N[C@@H](CC(C)C)C(=O)N[C@@H](CC(C)C)C(=O)N[C@@H](CCC(=O)O)C(=O)N[C@@H](CO)C(=O)N[C@@H](CCC(=O)O)C(=O)N[C@@H](C)C(=O)N[C@@H](C)C(=O)N[C@@H](C)C(=O)N[C@@H](CCCCN)C(=O)N[C@@H](CCCCNC(=O)CCC(=O)O[C@H]1CC[C@@]2(C)C(=CC[C@H]3[C@@H]4CC[C@H]([C@H](C)CCCC(C)C)[C@@]4(C)CC[C@@H]32)C1)C(N)=O)C(C)C)[C@@H](C)CC) [Compound 37]	5230 nM

— patent EP4792821A2 (Beijing Youcare Kechuang Pharmaceutical Technology Co., Ltd., dated 2026)
